Data on one molecule can be found in article PMC10123652, “An Antibody Targeting Fibroblast Activation Protein Simultaneously Fused to Interleukin-2 and Tumor Necrosis Factor Selectively Localizes to Neoplastic Lesions” (Antibodies, 2023).

For one test, the target named is IL2-7NP2-TNF^mut (human). In words: SEC; Superdex 200 Increase 10/300 GL; purified protein dialyzed against PBS pH 7.4; IgG (150 kDa) and SIP (80 kDa) as controls. For orientation: SEC sorts molecules by how far they enter the pores of the column.
The target of test [1] is T1, recombinant human fibroblast activation protein (FAP) (Homo sapiens, UniProt Q12884).
T1 construct: also called human FAP antigen; hFAP
T1 sequence (Q12884 whole entry): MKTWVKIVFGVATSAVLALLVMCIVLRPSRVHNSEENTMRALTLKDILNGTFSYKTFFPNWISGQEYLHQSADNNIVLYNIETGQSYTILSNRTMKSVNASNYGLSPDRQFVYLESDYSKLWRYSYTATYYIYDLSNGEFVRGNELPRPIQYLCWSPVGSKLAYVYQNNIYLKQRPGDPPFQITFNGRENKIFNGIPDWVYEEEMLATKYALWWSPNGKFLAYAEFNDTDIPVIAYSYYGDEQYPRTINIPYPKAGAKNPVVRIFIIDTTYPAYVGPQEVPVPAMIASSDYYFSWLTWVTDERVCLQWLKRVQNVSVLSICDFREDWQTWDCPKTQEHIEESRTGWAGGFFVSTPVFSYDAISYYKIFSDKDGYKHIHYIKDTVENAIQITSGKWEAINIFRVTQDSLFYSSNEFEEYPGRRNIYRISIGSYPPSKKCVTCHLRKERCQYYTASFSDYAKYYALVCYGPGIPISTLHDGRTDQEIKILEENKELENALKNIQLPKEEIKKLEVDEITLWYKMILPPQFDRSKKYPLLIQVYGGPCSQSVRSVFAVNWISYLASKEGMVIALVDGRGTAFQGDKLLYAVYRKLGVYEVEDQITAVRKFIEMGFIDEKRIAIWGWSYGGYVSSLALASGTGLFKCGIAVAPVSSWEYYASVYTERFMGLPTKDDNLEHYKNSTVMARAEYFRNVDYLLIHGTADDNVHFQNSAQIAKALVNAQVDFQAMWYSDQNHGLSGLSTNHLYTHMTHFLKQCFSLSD
In words: ELISA; plate coated with 0.1 µM human FAP overnight at 4 °C in 50 mM HEPES, 100 mM NaCl, pH 7.4; serial dilutions of IL2-7NP2-TNF^mut in 2% milk-PBS, 4 h at RT; detection with Protein A-HRP; triplicate. Conditions: both partners purified.

B1: IL2-7NP2-TNF^mut (other, human)
VH: EVQLLESGGGLVQPGGSLRLSCAASGFTFSSYAMSWVRQAPGKGLEWVSAIGSVGGPTYYADSVKGRFTISRDNSKNTLYLQMNSLRAEDTAVYYCAKRLAWFDYWGQGTLVTVSS
VL: EIVLTQSPGTLSLSPGERATLSCRASQSVSSSYLAWYQQKPGQAPRLLIYGASSRATGIPDRFSGSGSGTDFTLTISRLEPEDFAVYYCQQSGKGPLTFGQGTKVEIK
notes: wild-type human interleukin-2 (IL2), N-terminal moiety of the fusion; mutated version of human TNF (TNFα); Non-covalent homotrimer; also called dual-cytokine antibody fusion protein
In general, stoichiometry N refers to a count of units in the complex or per binding partner. As a reminder, the Kd is a measure of binding affinity in units of concentration. In the case of B1, in the test with IL2-7NP2-TNF^mut (human), the stoichiometry N turned out to be 3. For the same molecule, the Kd in test [1] was roughly 0.1 nM.
